Assay [1] addresses T1, human G protein β2 subunit (human, UniProt P62879 1-340). As to the kind of experiment: tryptic proteolysis protection assay of co-translated β and γ subunits (rabbit reticulocyte lysate, SDS-PAGE). The protocol: (§1) βγ interaction was assessed by a tryptic proteolysis assay. Plasmid DNA (1 μg) for each of the β and γ subunits were co-transcribed and co-translated in the TNT-coupled rabbit reticulocyte lysate system (Promega, Madison, Wis.). The plasmid DNA for each of the γ subunits was linearized to limit the generation of translated products of higher molecular weight. […] To increase levels of the γ₁₀ and γ₁₁ subunits 2 μg of capped RNA were added to the co-transcribed β-γ mix. Alternatively, γ₁₀ and γ₁₁ subunits that had been translated separately were added to the co-translated β-γ mix. For tryptic digestion, 5 or 10 μl aliquots of the co-translated β-γ mix were digested by addition of 1 μl trypsin (1 μg) in a final volume of 20 μl (with 50 mM Na-HEPES, pH 8.0) After incubation for 1 hour at 30° C., the digestions were stopped by addition of Laemmli sample buffer and boiling for 3 minutes. Protected fragments of β were visualized by running samples on 15% SDS-PAGE gels. After electrophoresis, gels were fixed in 40% methanol/10% acetic acid mix, soaked in ENHANCE (DuPont-NEN, Boston, Mass.), and dried. The dried gels were exposed for 8 to 48 hours at −80° C.

Assay [2] deals with T1, human G protein β2 subunit. As to the kind of experiment: tryptic proteolysis protection assay of co-translated β and γ subunits (βγ dimer formation). The protocol:
as §1

T1 sequence (P62879 whole entry): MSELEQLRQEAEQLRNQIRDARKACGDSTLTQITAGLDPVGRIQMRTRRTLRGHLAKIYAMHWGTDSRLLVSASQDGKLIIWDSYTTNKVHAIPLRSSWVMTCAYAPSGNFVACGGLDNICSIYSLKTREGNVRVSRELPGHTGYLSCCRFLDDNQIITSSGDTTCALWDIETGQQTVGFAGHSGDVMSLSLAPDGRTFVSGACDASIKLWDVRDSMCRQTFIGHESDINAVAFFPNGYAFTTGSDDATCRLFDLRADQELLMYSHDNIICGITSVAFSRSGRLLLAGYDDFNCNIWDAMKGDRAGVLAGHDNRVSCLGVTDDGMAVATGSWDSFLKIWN

B1: human G protein γ11 subunit (other)
chain: MPALHIEDLPEKEKLKMEVEQLRKEVKLQRQQVSKCSEEIKNYIEERSGEDPLVKGIPEDKNPFKEKGSCVIS
modifications: modified by a farnesyl group (residue not stated)
Take B1: the binding result in assay [1] is reported as “no binding”.

B2: human G protein γ4 subunit (other)
chain: MKEGMSNNSTTSISQARKAVEQLKMEACMDRVKVSQAAADLLAYCEAHVREDPLIIPVPASENPFREKKFFCTIL
modifications: modified by a geranylgeranyl group (residue not stated)
In the case of B2, the binding result in assay [2] is recorded as “binds”.

The values above are taken from patent US20020106678A1 (published 2002).
